{"source": "the DeepSol protein solubility set", "data": [{"experiment": "soluble on expression in E. coli; label from the status in PepcDB or PDB records", "values": [{"sequence": "SSNPRSLEEEKYDMSGARLALILCVTKAREGSEEDLDALEHMFRQLRFESTMKRDPTAEQFQEELEKFQQAIDSREDPVSCAFVVLMAHGREGFLKGEDGEMVKLENLFEALNNKNCQALRAKPKVYIIQACRGEQRDPGETVGGDEIVMVIKDSPQTIPTYTDALHVYSTVEGYIAYRHDQKGSCFIQTLVDVFTKRKGHILELLTEVTRRMAEAELVQEGKARKTNPEIQSTLRKRLYLQ", "soluble on expression in E. coli": "soluble"}, {"sequence": "MAHHHHHHMQTYHRHMTSSSNPVVIFVFDHQGSAVTDFWAPLLQSVSKGLDAFGIEVAHAPTSSEIGQQLLAAMNAGSGPIILFFQGVGDTPAEGGKGLKMPIAYDGNIDMAHIMSWGLSCISSSVTHRVHNDVDLARFFAQYPQYPALPHVLYFPSTSYTPGGYLALSQHFALDAVFGVVPNAFTAPNATHIAQRYNITSKDELPVLLVLHRSTADAGGGAGESDRVVRMPAAATSLSYREALAFLSTQITDTVAALVAKAESTQNQHFLEVAESRRVYMMGQLIERQHDIVEEERLQMAREPILVKDQAVWAKECVQLPKKHRCVAAFVDSAQDSAAKDNAVKVLSLVSVKLLEIMGREAQKVSLVVVDRQGSDAVREYFDVGHNGFPDVLFLSLDRPAKYYNFVGTFSAEGVTQFVASHDAQLTQKDVRGGHTFIPRMVPKLEEAVAVPRSGDEDKDDL", "soluble on expression in E. coli": "soluble"}, {"sequence": "GPGSMTHNRSGAVRRKVVQHDFYDSADQVGGVVLLNNPTNGSWEYDEYLRLLTTKRYSRIPSWEAHSTAQCYFVCADGVYPKLQSYVKERQVSHPHLRLFQFFPLCDAVIGDMDSYVTSYEKDGCERPSSTPEGGYGTVDDIPVEVLDTIHHRCRSAAALFREVDGSVPDTPLNGWKMLHEEHSHPLLRPLWLHIQCQITTDFKKALTLLKRLRKRYPDENAVVLPPVLRSPGAARILETGGGVVDQRNCGCDNDPIQERELCVAASQVEALLLPTVVAVGAFGGRFDHEVGAISTMLSESHDAHIVLINLFNTVFACQGGGWTQIVRQPEYEDKTCGLVNYGRMTECETSGLLWNVVKGRGRPSVTNDFVFDFGAFISVCNIVRREVITVDLRCLLTSVGESPADATTATGASDCEAQRGRGPPVVFSILRRQKKEGG", "soluble on expression in E. coli": "not soluble"}, {"sequence": "MKLKKIVFTLIALGLFSCKTTSVLVKNEPQLKTPKNVILLISDGAGLSQISSTFYFKSGTPNYTQFKNIGLIKTSSSREDVTDSASGATAFSCGIKTYNAAIGVADDSTAVKSIVEIAALNNIKTGVVATSSITDATPASFYAHALNRGLEEEIAMDMTESDLDFFAGGGLNYFTKRKDKKDVLAILKGNQFTINTTALTDFSSIASNRKMGFLLADEAMPTMEKGRGNFLSAATDLAIQFLSKDNSAFFIMSEGSQIDWGGHANNASYLISEINDFDDAIGTALAFAKKDGNTLVIVTSDHETGGFTLAAKKNKREDGSEYSDYTEIGPTFSTGGHSATLIPVFAYGPGSEEFIGIYENNEIFHKILKVTKWNQ", "soluble on expression in E. coli": "soluble"}, {"sequence": "MGSDKIHHHHHHMDRQKTSQTVPAGDADDGDDTSVDEKRSPLILTEQVWRKRPAYSSPLPDDKSITLSRWTIPEQPTPVEFRSDGNEDSHIITYSLRQSSVDFWMEGQRVSNGRVTPHAVLMTGPGQPGRAVFYKVFDSIRMYLPQALLAECHEGAYGRPPNQDIVLSHPHFVADQKVRHLVEALVLVDQTDGAMGRIYVDSIGLAIGARLIALHGERRNPVDRSQGLSAWRLRHVIEYIDAHLSSPIGLAELANVAGLSRMHFARRFREVTGQTPHQYVLRCRIMRAQQLLCSPALSVTDIASALAFKTTAHFSTVFRHIVGESPTQWRKRLR", "soluble on expression in E. coli": "not soluble"}, {"sequence": "MGSDKIHHHHHHMKRLITTGAAFLLAATLSACNGNNTSETQGDRTEQAETVQADLFSADSAYTFVQRQVNFGPRIPGTAPHRACGDWLVATLRSFGAAVQEQTAEIKAHDGTMLPMRNIIASYRPEATGRMLLMAHWDTRPVCDQDANPAMHTETFDGADDGGSGVGVLLEIARYLGQQKDLGMGIDIVFFDTEDYGSYGDDESWCLGSQYWSRNPHVAGYKAEAGILLDMVGAKGATFYWEYFSKSYAPGLISAVWQTAAALGYGNYFIQADGGALTDDHVPVIKNLGIPCIDIINYSSKNEHGFGDHWHTQRDNMQIIDKNVLDAVGETVIRYLDEQVKAASH", "soluble on expression in E. coli": "not soluble"}, {"sequence": "MASKHAAKTVDPKDLSPAWKVLQMKLNEEKAEKEKAAKAEKEANPEGSDDGFTKVQTKKQKQKMNRKRRAQEALAAASEVKRVHHDIPVVIEDSERGELTKVIAIDCEYVGAGMGGTTDILARISIVNELGKIVYDKFVKPTEKVTDFRTAVSGIRPENMIKAIPFDRAQTEVSKLIDGRIVIGHAVHNDFRVLKLNHIRKLTRDTAKCTILKNMANHHGTPSLKKLAKEVLGIEIQRGEHDSITDARVALRLYEAVKKQWEAEIKRYR", "soluble on expression in E. coli": "not soluble"}, {"sequence": "MGSDKIHHHHHHMVKTVNWRDLLEPQTKIRDPLYGYIWVTDDELQIIDTPIFQRLRRVNQLALTKYVYPTAEHSRFVHSLGAMHCATQIFTGILNNTHSYHGIRAIDSANMLRRLRYAALLHDIGHIAFSHAAEKLILNPLQHEHLGQFIIANYSPISSILGEHIKPVISILADSVTQDNRLLHQIISGHLDADRADYLMRDSHACGVKYGEYDFERYMQAFGAINESNELKLFVHERDIFVIESFLVARHHYNMQVPYHRTRMGYDIILGRFLKEFLPKCDDAKLGLTVEEGAYTKVDLQKFEFFDDYSVFNHIKHEARTGNLWANMLLRQGHLCPVYDTTDSVDRGGKVFKKIIRRLKAKNFVEDDDFFQCRKEITASKLISTDEKENSLADTSRETIYVRTKSGKLVDIVKHSNIVRALRPVTIYRIYTSQKRKSEAEAVIADVCRKTQVDRRG", "soluble on expression in E. coli": "not soluble"}, {"sequence": "EVASYCDRVVAAVSSWMSTVKSTTEVSWNKLSFCDVLLKIITFGIYSPHETLAEKYSEKKLMDSFSPSLSQDKMDGEFAHANIDGISIRLCLNKGICSVFYLDGDKIQSTQLSSKEYNNLLSSLPPKQFNLGKVHTITAPVSGNFKTHKPAPEVIETAINCCTSIIPNDDYFPVKDTDFNSVWHDIYRDIRASDSNSTKIYFNNIEIPLKLIADLINELGINEFIDSKKELQMLSYNQLNKIINSNFPQQDLCFQTEKLLFTSLFQDPAFISALTSAFWQSLHITSSSVEHIYAQIMSENIENRLNFMPEQRVINNCGHIIKINAVVPKNDTAISASGGRAYEVSSSILPSHITCNGVGINKIETSYLVHAGTLPSSEGLRNAIPPESRQVSFAIISPDV", "soluble on expression in E. coli": "soluble"}, {"sequence": "MLKKIREEFGCIFARDPAAQSFFEILTVYPGVHAVLIHRFSHWLWNHGLHWPARVLSYLARWATGIEIHPGATLGRRLFIDHGMGVVIGETAVIGDDCTLYHGVTLGGTSWQKGKRHPTLGNGVVVGAGAKVLGPITVGDGARIGSNSVVLRTVPAGATVVGIPGHIINPDRRAQEAQRLAIASRLGFDAYGMTPDMPDPVAHAINHMLDHIQALDQQVAKLKEVLRERGIDLEEAPLPDLDDCQLDPGEPQVTVNSSRTGLEHHHHHH", "soluble on expression in E. coli": "soluble"}, {"sequence": "MGSDKIHHHHHHLKSAEGSTWNCCPIDWRAFQSNCYFPLTDNKTWAESERNCSGMGAHLMTISTEAEQNFIIQFLDRRLSYFLGLRDENAKGQWRWVDQTPFNPRRVFWHKNEPDNSQGENCVVLVYNQDKWAWNDVPCNFEASRICKIPGTTLN", "soluble on expression in E. coli": "not soluble"}, {"sequence": "SMSPEPDCQKQFQAAVSVIQNLPKNGSYRPSYEEMLRFYSYYKQATMGPCLVPRPGFWDPIGRYKWDAWNSLGKMSREEAMSAYITEMKLVAQKVIDTVPLGEVAE", "soluble on expression in E. coli": "soluble"}, {"sequence": "MDPFGKYIKAVSARAADKEILKKAQDGGIVSAAYIYGLESGLLDGVIIADKEDGFAAAPKVATTREEILNAAGTKYTVCPNLSVVKSAVREYGCDKLGFVGTPCQVRSIRKAIKYPVGYRHVPDKIALIMGIFCMENFPYNGMKAIVEEHCGIKMDDVVKTDIGKGKFWVYSKWGDVKTIPLKDTHPYEQGSCHVCMDYTAELADISTGSVGSPDGWSTIFVRTAKGEEYLNKMVEAGALETKEIDAVKPGLGLVEKLALTKKEKNGKEVEHRKEIGLPVPYLEHHHHHH", "soluble on expression in E. coli": "not soluble"}, {"sequence": "MALSDRLELVSASEIRKLFDIAAGMKDVISLGIGEPDFDTPQHIKEYAKEALDKGLTHYGPNIGLLELREAIAEKLKKQNGIEADPKTEIMVLLGANQAFLMGLSAFLKDGEEVLIPTPAFVSYAPAVILAGGKPVEVPTYEEDEFRLNVDELKKYVTDKTRALIINSPCNPTGAVLTKKDLEEIADFVVEHDLIVISDEVYEHFIYDDARHYSIASLDGMFERTITVNGFSKTFAMTGWRLGFVAAPSWIIERMVKFQMYNATCPVTFIQYAAAKALKDERSWKAVEEMRKEYDRRRKLVWKRLNEMGLPTVKPKGAFYIFPRIRDTGLTSKKFSELMLKEARVAVVPGSAFGKAGEGYVRISYATAYEKLEEAMDRMERVLKERKLV", "soluble on expression in E. coli": "soluble"}, {"sequence": "AVTIPPARHAEPQRWIARLPGFKISENKAQALWELAGKNIEGLQTDKALPTDWQAWRSEPQNAALLENLKTFFAQMPSEDEAAQGSDGIN", "soluble on expression in E. coli": "not soluble"}, {"sequence": "MRGSHHHHHHTDPALRANEFSILCRVLGSLYYRQPQDPLLVPLFTLIREGKLAANWPLEQDELLTRLQKSCDMTQVSADYNALFIGDECAVPPYRSAWVEGATEAEVRAFLSERGMPLADTPADHIGTLLLAASWLEDQSTEDESEALETLFSEYLLPWCGAFLGKVEAHATTPFWRTMAPLTRDAISAMWDELEEDSEEGLCGR", "soluble on expression in E. coli": "soluble"}, {"sequence": "MGSDKIHHHHHHMQALERDYGHGDEVASHCHAEDQLIYAASGVMRVSSEGGSWVIPGGHALWMPAGVSHAIRMKGVVCMRTLLLDAHIERCQVIVVSGLLRELILAASRVLNLRDGAHARALILYELAAARRIDAFVPTPQHARLRAWCERFLQDPAQDLTLEQCGAQLNMSARSVARLFQREVGMSYGQWRARARVMLSQQCLADGKPILNVALEHGYQSASAFTAMFKRILGHAPSDWQNGTAREY", "soluble on expression in E. coli": "not soluble"}, {"sequence": "MTSESSGNTGGAMDEPTEKKPKEFSDLPDHVLQRIMEKVEPSDRLSVRKVNRNLRQLIDEMDPGFRSISVNISTRKGVLVSYDNGSFIHYQQVYDDCEMFGRKEKKRFFNENAVKMAINDVIRVMSHPMSNVKLFRTGIPTKPEMERSRSTGKQWKRAKILCANRGFMEVSMKHLCHFSRVVVNQARTSMQTAIEIRDILLKSTSIEYVDFCSRDGVTIDAVRVFIPETANVNQTTDYDNFTFSSSMCSLNFKKKR", "soluble on expression in E. coli": "not soluble"}, {"sequence": "MSLGYAFPSILGNLMSKIYQMDAVDWLKTLENCSVDLFITDPPYESLEKYRQIGTTTRLKESKSSSNQWFSVFPNTRFEELFREVYRVLKKGSHFYLFCDQETMFLAKPIAESVGFKFWKPIVWDKCAIGMGYHYRARYEFILFFEKGKRKLNDLSVPDVLEYKRVWKGYPTEKPVELLEVLIRQSSSENEIVADSFFGSGSTLIAANNLSRKYIGCDISSSAHEYFKNRAEGHHHHHH", "soluble on expression in E. coli": "soluble"}, {"sequence": "MNVNRLLIVGAGAFGREVHAWLLDWVKLNPGWVIAGFINDGPGSIARFDHYPAVVSSVEGYEPGPEDYLVCAIAKPADKRLVVEKLLGKGARFFTLIHPSVIMGENVVIGQGAVICPSTVLSVDLRIGAFVTLNIGCLVGHDADIGDFSTLSGHCDITGGVVLEEEVFMGTHASVLPNVKVGKQAVVGAGSVAIRNVAAGITVFGVPAKRISGLEHHHHHH", "soluble on expression in E. coli": "not soluble"}, {"sequence": "MGSDKIHHHHHHMQPDVRHSPKEAFEFAANNGFTHVEILMDHPLYSLENLSFAEVIELKWSYDLDLLIHAPATSTNFISISNEMRKASYKEMSKVCYFAEKCGAEVVTFHIGWNPAFINNGNFYFNKSLFDRHNESVLLNEFLPFVKTCPVQLALENTIMIEDGLERALNEIMGKTTLGLTIDVGHYNIRENPFFLKNFDRVVNMHLHDNDGTADQHLALGRGTVDLSKFNLNRYTGFLTIETREEKSIIESRDYLMRVIV", "soluble on expression in E. coli": "not soluble"}]}]}
